For experiment [1], the target named is T1, human IL-17RA on HT1080 cells (human, UniProt Q96F46 33-866).
T1 sequence: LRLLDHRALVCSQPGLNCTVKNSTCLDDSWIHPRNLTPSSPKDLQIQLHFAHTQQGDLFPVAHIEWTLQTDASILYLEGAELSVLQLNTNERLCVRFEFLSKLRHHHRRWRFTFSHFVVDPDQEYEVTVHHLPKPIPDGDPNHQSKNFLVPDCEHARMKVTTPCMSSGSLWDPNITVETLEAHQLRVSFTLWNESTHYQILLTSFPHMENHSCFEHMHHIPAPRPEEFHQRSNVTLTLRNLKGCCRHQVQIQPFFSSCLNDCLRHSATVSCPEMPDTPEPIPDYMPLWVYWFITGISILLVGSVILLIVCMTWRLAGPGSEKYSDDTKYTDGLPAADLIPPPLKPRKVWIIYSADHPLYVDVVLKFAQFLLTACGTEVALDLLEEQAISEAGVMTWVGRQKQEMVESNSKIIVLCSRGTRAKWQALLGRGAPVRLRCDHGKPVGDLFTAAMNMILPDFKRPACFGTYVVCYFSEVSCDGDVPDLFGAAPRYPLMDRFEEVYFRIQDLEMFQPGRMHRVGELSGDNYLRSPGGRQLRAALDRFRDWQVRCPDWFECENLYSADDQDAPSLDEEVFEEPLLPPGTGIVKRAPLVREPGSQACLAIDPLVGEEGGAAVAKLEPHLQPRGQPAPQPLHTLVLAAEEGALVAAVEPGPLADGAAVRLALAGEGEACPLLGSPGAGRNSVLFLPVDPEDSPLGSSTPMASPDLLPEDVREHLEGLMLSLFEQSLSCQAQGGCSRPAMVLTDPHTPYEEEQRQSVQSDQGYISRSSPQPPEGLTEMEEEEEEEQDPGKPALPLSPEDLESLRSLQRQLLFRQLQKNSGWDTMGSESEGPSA
Put plainly: cell-based or functional assay.

The target in experiment [2] is T2, IL-17RB (UniProt Q9NRM6 18-289, limits assumed).
T2 sequence (looked up): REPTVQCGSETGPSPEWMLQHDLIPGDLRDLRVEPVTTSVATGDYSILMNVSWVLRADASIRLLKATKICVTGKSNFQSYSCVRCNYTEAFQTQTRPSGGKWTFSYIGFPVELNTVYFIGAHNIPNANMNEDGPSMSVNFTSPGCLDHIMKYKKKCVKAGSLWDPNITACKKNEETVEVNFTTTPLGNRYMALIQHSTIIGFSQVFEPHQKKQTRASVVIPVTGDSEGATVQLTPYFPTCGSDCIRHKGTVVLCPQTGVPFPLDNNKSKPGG
Put plainly: specificity ELISA, antigen coated, anti-His-HRP detection. On the procedure: (§1) The binding ELISA for crude or purified VH was similar to the serum ELISA and phage ELISA, previously described, mostly differing in the final detection steps. Briefly, antigen was immobilised on maxisorb plates (Nunc 443404) by adding 50 ul volumes at 0.1-1 ug/ml in PBS and incubating at 4° C. overnight. Following coating, the antigen solution was aspirated and the plates were washed using PBS (prepared from PBS tablets, Oxoid cat no. BR0014G) supplemented with 0.05% Tween® 20 (sigma P1379), followed by washes with PBS without added Tween®. To block non-specific protein interactions, a solution of 3% skimmed milk powder (Marvel) in PBS was added to the wells and the plate was incubated for at least one hour at room temperature. Dilutions of periplasmic extract or purified VH in 3% Marvel/PBS were prepared in polypropylene tubes or plates and incubated for at least one hour at room temperature prior to transfer to the blocked ELISA plate where a further incubation of at least one hour took place. Unbound protein was then washed away using repetitive washes with PBS/Tween® followed by PBS. A solution of HRP-conjugated anti-His Ab (Miltenyi Biotec, 130-092-785), prepared at 1:1000 dilution in PBS/3% Marvel was then added to each well and a further incubation at room temperature for at least one hour took place. Unbound detection antibody was removed by repeated washing using PBS/Tween® and PBS. The ELISA was then developed using TMB substrate (Sigma cat. no. T0440) and the reaction was stopped after 10 minutes by the addition of 0.5M H₂SO₄ solution (Sigma cat. no. 320501). Absorbances were determined by reading at 450 nm.
A general note: In an ELISA, binding on a coated surface is turned into a signal by an enzyme label.

The target in experiment [3] is T3, IL-17RD (UniProt Q8NFM7 17-299, limits assumed).
T3 sequence (looked up): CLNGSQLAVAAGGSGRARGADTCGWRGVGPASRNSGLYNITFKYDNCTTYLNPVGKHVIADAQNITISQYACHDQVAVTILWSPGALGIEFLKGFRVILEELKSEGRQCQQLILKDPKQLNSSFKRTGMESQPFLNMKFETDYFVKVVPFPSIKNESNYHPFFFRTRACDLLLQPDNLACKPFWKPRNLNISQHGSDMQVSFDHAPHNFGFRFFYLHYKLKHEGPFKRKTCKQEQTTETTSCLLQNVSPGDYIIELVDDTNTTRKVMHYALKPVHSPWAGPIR
Described as above. On the procedure: as §1

The target of experiment [4] is T4, recombinant human IL-17RA Fc fusion protein (R&D Systems 177-IR-100) (human, UniProt Q96F46 33-320).
T4 construct: Bought protein; not shown: Fc domain of human IgG1
T4 sequence: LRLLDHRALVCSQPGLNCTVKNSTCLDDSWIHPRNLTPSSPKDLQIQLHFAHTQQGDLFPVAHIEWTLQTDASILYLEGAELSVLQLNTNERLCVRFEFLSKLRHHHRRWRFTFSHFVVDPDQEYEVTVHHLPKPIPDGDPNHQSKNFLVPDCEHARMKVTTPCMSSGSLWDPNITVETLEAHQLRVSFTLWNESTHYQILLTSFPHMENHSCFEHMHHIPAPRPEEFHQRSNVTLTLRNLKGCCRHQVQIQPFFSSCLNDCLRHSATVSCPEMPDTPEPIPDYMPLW
Put plainly: BIAcore T200 single-cycle kinetics, IL-17RA-Fc captured on protein G chip, VH as analyte. As to the method:
Binding kinetics of anti-IL-17RA VH antibodies were measured on a BIAcore® T200 instrument. For IL-17RA, first a protein G chip was prepared by diluting protein G to 20 ug/ml in acetate buffer, pH 4 (BIAcore®, cat# BR-100-49) and then coupled 1200 RU to a CM5 Series S chip using amine coupling chemistry. This surface was then used to capture IL-17RA Fc fusion protein from solution: IL-17RA at 10 ug/ml in HBS injected for 10 seconds at 30 ul/min flow rate would capture approximately 100-150 RU of IL-17RA onto the protein G surface.
Binding kinetics of anti-IL-17RA VH antibodies were determined by single-cycle kinetics. VH antibodies were prepared in dilution series (typically 1:3 dilution series starting with 100 nM VH at the highest concentration), and then injected over the antigen coated surfaces and also a blank surface, starting with the lowest concentration of VH and then working progressively up to the highest concentration. VH binding kinetics were then determined from the (blank subtracted) sensorgram traces using 1:1 binding models and BIAevaluation software.
For orientation: In SPR one partner is held on a chip, and binding of the other changes the refractive index at the surface.

B1: VH clone 2.1 (VHH)
VHH: QVQLVQSGAEVKKPGASVKVSCKASGYPFTSYDINWVRQATGQSLEWMGWMNPNSGDTVYAQKFQGRVTMTRNTSISTAYMELSSLRSEDTAVYFCARGRRDDWKNNYWGQGTLVTVSS
notes: Human VH single domain antibody, no light chain; Parent clone of family 2; also called VH 2.1
For orientation: Kd means the concentration at which binding is half-saturated. For the molecule B1, in experiment [1], the “Cell assay IC50” value was determined as 280 nM. Further, the binding result in experiment [2] and in experiment [3] was “no binding” in each case. Also, the Kd in experiment [4] came out at 7 nM.

These data come from patent US20180215829A1 (CRESCENDO BIOLOGICS, published 2018).
